Test results taken from US8088892B2, “Inhibitors of proteins from the Rho-GEF family” (Centre National de la Recherche Scientifique (C.N.R.S.), priority 2002, dated 2012).

Tests used:
Test in all cases: Binding specificity of aptamers in yeast
Set-up in all cases: key: +++^1 and +^1 represent respectively a full and a partial (see FIG. 1) binding capacity; +++^1 and +^1 represent respectively a full and a partial (see FIG. 1) binding capacity; −−^1 represents a lack of binding
p115RhoGEF = molecular target: T1, p115RhoGEF (Homo sapiens, UniProt Q92888); settings: RhoGEF p115RhoGEF
T1 construct: p115RhoGEF (a.a. 391-870); expressed in transfected cells; host or cells: yeast
T1 sequence (Q92888 391-870): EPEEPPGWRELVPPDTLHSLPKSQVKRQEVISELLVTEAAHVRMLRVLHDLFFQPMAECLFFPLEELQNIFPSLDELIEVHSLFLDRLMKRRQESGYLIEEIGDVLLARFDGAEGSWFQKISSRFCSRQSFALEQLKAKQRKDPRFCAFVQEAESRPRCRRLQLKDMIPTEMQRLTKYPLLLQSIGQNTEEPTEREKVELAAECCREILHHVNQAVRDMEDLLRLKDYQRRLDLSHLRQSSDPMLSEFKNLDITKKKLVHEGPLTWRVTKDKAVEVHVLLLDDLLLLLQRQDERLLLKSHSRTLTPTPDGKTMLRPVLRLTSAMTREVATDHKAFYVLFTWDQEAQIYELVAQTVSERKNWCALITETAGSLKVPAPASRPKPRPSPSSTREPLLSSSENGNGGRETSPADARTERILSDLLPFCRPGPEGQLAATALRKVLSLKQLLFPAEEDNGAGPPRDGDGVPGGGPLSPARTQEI
Excerpt: (§1) Trx represents the thioredoxin protein with no inserted peptide.
(§2) In order to identify specific inhibitors of TrioGEFD2, a recently developed strategy was used, this strategy being derived from the yeast two hybrid system, where the cDNA library of preys has been replaced by a combinatorial library of short peptides (20 amino acids) in fusion with the bacterial protein thioredoxin A (Colas et al., 1996). This strategy has been successfully used to isolate specific inhibitors of the cyclin-dependent kinases (Cdks), the cell cycle transcription factor E2F, or the viral HPV16 E6 oncoprotein and HBEV core protein (Colas et al., 1996; Butz et al., 2001; Fabrizzio et al., 1999; Geyer et al., 2000). The TrioGEFD2 bait was constructed as follows: plasmid pMTHATrio1848-2298 (Bellanger et al., 1998) was digested with EcoRI/XhoI and the insert cloned in pEG202EcoRI/XhoI to generate the bait pEG202TroGEFD2. Yeast strain EGY048 (Colas et al., 1996) was transformed with pEG202TrioGEFD2 and subsequently with the library of Thioredoxin constrained aptamers according to standard procedures (Ito et al., 1983). After transformation, cells were allowed to recover for 4 hours in galactose containing medium before plating on selective galactose medium. Of the 2×10^6 screened colonies, those growing in the selective medium were recovered and retested for interaction. […] Binding specificity was investigated by screening for interaction with the following baits: TrioDH2 (a.a. 1848-2096), TrioPH2 (a.a. 2107-2223), TrioGEFD1 (a.a. 1232-1629), Dbl (a.a. 498-826), Vav (ala. 172-598) (Zhang et al, 1994), GEFD2 domain of Kalirin (a.a. 1640-1980)(Penzes et al., 2001), p115RhoGEF (a.a. 391-870)(Wells et al, 2002) and PDZRhoGEF (a.a. 964-1362) (Fukuhara et al., 1999). None of these aptamers interacted with other RhoGEF members such as Dbl, Vav, and the RhoA-specific GEFs p115RhoGEF and PDZRhoGEF.

Vav = settings: RhoGEF Vav
Excerpt: as §1, §2

PDZRhoGEF = settings: RhoGEF PDZRhoGEF
Excerpt: as §1, §2

Dbl = molecular target: T2, Dbl (Homo sapiens, UniProt P10911); settings: RhoGEF Dbl
T2 construct: Dbl (a.a. 498-826); expressed in transfected cells; host or cells: yeast
T2 sequence (P10911 498-826): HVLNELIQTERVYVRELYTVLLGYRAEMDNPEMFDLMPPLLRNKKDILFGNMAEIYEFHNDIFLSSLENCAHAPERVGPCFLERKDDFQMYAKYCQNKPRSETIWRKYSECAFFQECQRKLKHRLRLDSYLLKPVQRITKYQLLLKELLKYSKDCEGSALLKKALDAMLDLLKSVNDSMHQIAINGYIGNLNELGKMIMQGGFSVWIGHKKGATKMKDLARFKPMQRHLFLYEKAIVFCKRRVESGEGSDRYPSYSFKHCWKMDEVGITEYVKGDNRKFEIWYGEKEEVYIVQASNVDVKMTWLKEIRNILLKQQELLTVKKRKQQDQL
Excerpt: as §1, §2

Binding in yeast (p115RhoGEF): −−^1 | Binding in yeast (Vav): −−^1 | Binding in yeast (PDZRhoGEF): −−^1 | Binding in yeast (Dbl): −−^1
B1: TRIAPα: aptamer of 154 amino acids: variable region of 42 amino acids inserted into the thioredoxin protein; tested as GST fusion (protein)
chain: MSDKIIHLTDDSFDTDVLKADGAILVDFWAEWCGPAREGADGAICGYNLATLVMLGPSERVFCPLCEPCSSDIYELMGPCKMIAPILDEIADEYQGKLTVAKLNIDQNPGTAPKYGIRGIPTLLLFKNGEVASATKVGALSKGQLKEFLDANLA
